Data published in the RNAGym collection of RNA variant scans (doi:10.7554/elife.80360).

B1: HDV Ribozyme (parent)
chain: GGCCGGCAUGGUCCCAGCCUCCUCGCUGGCGCCGGCUGGGCAACAUUCCGAGGGGACCGUCCCCUCGGUAAUGGCGAAUGGGACCCA

Variants of: B1
Assay: self-cleavage, relative activity (ratio to wild type); higher = more cleavage; co-transcriptional

Variant	self-cleavage
GGCCGGCAUGGUCCCAGCCUCCUCGCUGGCGCCGGCUGGGAAACAUUCCGAGGUGACCGUCCCCUCGGUAAUGGCGAAUGGGACCCA [C41A G54U]	0.862
GGCCGGCAUGGUCCCAGCCUCCUCGCUGGCGCCGGCUGGGGAACAUUCCGCGGGGACCGUCCCCUCGGUAAUGGCGAAUGGGACCCA [C41G A51C]	0.635
GGCCGGCAUGGUCCCAGCCUCCUCGCUGGCGCCGGCUGGGAAACAUUCCGAGGGGACCGUCCCCUCCGUAAUGGCGAAUGGGACCCA [C41A G67C]	0.525
GGCCGGCAUGGUCCCAGCCUCCUCGCUGGCGCCGGCUGGGAAACAUUCCGAGGGGACCGUCCCUUCGGUAAUGGCGAAUGGGACCCA [C41A C64U]	0.831
GGCCGGCAUGGUCCCAGCCUCCUCGCUGGCGCCGGCUGGGAAACAUUCCGAGGGGACCGUCCCAUCGGUAAUGGCGAAUGGGACCCA [C41A C64A]	0.794
GGCCGGCAUGGUCCCAGCCUCCUCGCUGGCGCCGGCUGGGGAUCAUUCCGAGGGGACCGUCCCCUCGGUAAUGGCGAAUGGGACCCA [C41G A43U]	0.277
GGCCGGCAUGGUCCCAGCCUCCUCGCUGGCGCCGGCUGGGGACCAUUCCGAGGGGACCGUCCCCUCGGUAAUGGCGAAUGGGACCCA [C41G A43C]	0.308
GGCCGGCAUGGUCCCAGCCUCCUCGCUGGCGCCGGCUGGGGAGCAUUCCGAGGGGACCGUCCCCUCGGUAAUGGCGAAUGGGACCCA [C41G A43G]	0.262
GGCCGGCAUGGUCCCAGCCUCCUCGCUGGCGCCGGCUGGGAAACAUUCCGAGGGGACCGCCCCCUCGGUAAUGGCGAAUGGGACCCA [C41A U60C]	1.05
GGCCGGCAUGGUCCCAGCCUCCUCGCUGGCGCCGGCUGGGAAACAUUCCGAGGGGACCGUCCACUCGGUAAUGGCGAAUGGGACCCA [C41A C63A]	0.969
GGCCGGCAUGGUCCCAGCCUCCUCGCUGGCGCCGGCUGGGAAACAUUCCGAGGGGACCGUCCCCUCGUUAAUGGCGAAUGGGACCCA [C41A G68U]	0.561
GGCCGGCAUGGUCCCAGCCUCCUCGCUGGCGCCGGCUGGGAAACAUUCCGAGGGGACCGUCCCCUCGCUAAUGGCGAAUGGGACCCA [C41A G68C]	0.665
GGCCGGCAUGGUCCCAGCCUCCUCGCUGGCGCCGGCUGGGAAACAUUCCGAGGGGACCGUCCCCUCGAUAAUGGCGAAUGGGACCCA [C41A G68A]	1.01
GGCCGGCAUGGUCCCAGCCUCCUCGCUGGCGCCGGCUGGGGAACAUUCCGAGGGGACCGUCCCCUCGGUAAUGGCGAGUGGGACCCA [C41G A78G]	0.208
GGCCGGCAUGGUCCCAGCCUCCUCGCUGGCGCCGGCUGGGGAACAUUCCGAGGGGACCGUCCCCUCGGUAAUGGCGACUGGGACCCA [C41G A78C]	0.0405
GGCCGGCAUGGUCCCAGCCUCCUCGCUGGCGCCGGCUGGGGAACAUUCCGAGGGGACCGUCCCCUCGGUAAUGGCGAUUGGGACCCA [C41G A78U]	0.178
GGCCGGCAUGGUCCCAGCCUCCUCGCUGGCGCCGGCUGGGGAACAUUCCGAGGGGACCGUCCCCUCGGUAAUGGCGAAUGGGUCCCA [C41G A83U]	0.77
GGCCGGCAUGGUCCCAGCCUCCUCGCUGGCGCCGGCUGGGAAACAUUCCGAAGGGACCGUCCCCUCGGUAAUGGCGAAUGGGACCCA [C41A G52A]	0.901
GGCCGGCAUGGUCCCAGCCUCCUCGCUGGCGCCGGCUGGGAAACAUUCCGACGGGACCGUCCCCUCGGUAAUGGCGAAUGGGACCCA [C41A G52C]	0.928
GGCCGGCAUGGUCCCAGCCUCCUCGCUGGCGCCGGCUGGGAAACAUUCCGAGGGGACCGUCCCCUCGGUAAUGGCUAAUGGGACCCA [C41A G76U]	1.02
GGCCGGCAUGGUCCCAGCCUCCUCGCUGGCGCCGGCUGGGAAACAUUCCGAGGGGACCGUCCCCCCGGUAAUGGCGAAUGGGACCCA [C41A U65C]	1.14
GGCCGGCAUGGUCCCAGCCUCCUCGCUGGCGCCGGCUGGGGAACUUUCCGAGGGGACCGUCCCCUCGGUAAUGGCGAAUGGGACCCA [C41G A45U]	0.594

Variant	self-cleavage
GGCCGGCAUGGUCCCAGCCUCCUCGCUGGCGCCGGCUGGGGAACCUUCCGAGGGGACCGUCCCCUCGGUAAUGGCGAAUGGGACCCA [C41G A45C]	0.166
GGCCGGCAUGGUCCCAGCCUCCUCGCUGGCGCCGGCUGGGGAACGUUCCGAGGGGACCGUCCCCUCGGUAAUGGCGAAUGGGACCCA [C41G A45G]	1.01
GGCCGGCAUGGUCCCAGCCUCCUCGCUGGCGCCGGCUGGGGAACAUUACGAGGGGACCGUCCCCUCGGUAAUGGCGAAUGGGACCCA [C41G C48A]	1.12
GGCCGGCAUGGUCCCAGCCUCCUCGCUGGCGCCGGCUGGGAAACAUUCCGAGGGUACCGUCCCCUCGGUAAUGGCGAAUGGGACCCA [C41A G55U]	0.968
GGCCGGCAUGGUCCCAGCCUCCUCGCUGGCGCCGGCUGGGGAACAUUCCGAGGGGACCGUCCCCUCGGUAAUGGCGAAUGGGACCCA [C41G]	0.798
GGCCGGCAUGGUCCCAGCCUCCUCGCUGGCGCCGGCUGGGAAACAUUCCGAGGGGACCGUCCCCUCGGUAAUGGCGAAUGGGAGCCA [C41A C84G]	0.749
GGCCGGCAUGGUCCCAGCCUCCUCGCUGGCGCCGGCUGGGAAACAUUCCGAGGGGACCGUCCCCUCGGUAAUGGCGAAUGGGAUCCA [C41A C84U]	0.388
GGCCGGCAUGGUCCCAGCCUCCUCGCUGGCGCCGGCUGGGAAACAUUCCGAGGGGACCGUCCCCUCGGUAAUGGCGAAUGGGACCAA [C41A C86A]	0.815
GGCCGGCAUGGUCCCAGCCUCCUCGCUGGCGCCGGCUGGGAAACAUUCCGAGGGGACCGUCCCCUCGGUAACGGCGAAUGGGACCCA [C41A U72C]	0.653
GGCCGGCAUGGUCCCAGCCUCCUCGCUGGCGCCGGCUGGGAAACAUUCCGAGGGGACCGUCCCCUCGGUAAGGGCGAAUGGGACCCA [C41A U72G]	0.712
GGCCGGCAUGGUCCCAGCCUCCUCGCUGGCGCCGGCUGGGAAACAUUCCGAGGGGACCGUCCCCUCGGUAAAGGCGAAUGGGACCCA [C41A U72A]	0.906
GGCCGGCAUGGUCCCAGCCUCCUCGCUGGCGCCGGCUGGGAAACAUUCCGAGGGGACCGUCUCCUCGGUAAUGGCGAAUGGGACCCA [C41A C62U]	0.869
GGCCGGCAUGGUCCCAGCCUCCUCGCUGGCGCCGGCUGGGAAACAUUCCAAGGGGACCGUCCCCUCGGUAAUGGCGAAUGGGACCCA [C41A G50A]	0.957
GGCCGGCAUGGUCCCAGCCUCCUCGCUGGCGCCGGCUGGGAAACAUUCCCAGGGGACCGUCCCCUCGGUAAUGGCGAAUGGGACCCA [C41A G50C]	0.877
GGCCGGCAUGGUCCCAGCCUCCUCGCUGGCGCCGGCUGGGAAACAUUCCUAGGGGACCGUCCCCUCGGUAAUGGCGAAUGGGACCCA [C41A G50U]	0.886
GGCCGGCAUGGUCCCAGCCUCCUCGCUGGCGCCGGCUGGGGAACAUUCCGAGGGGACCGUCCCCUCGGUAAUGGCGAAUGGGACCCU [C41G A87U]	0.788
GGCCGGCAUGGUCCCAGCCUCCUCGCUGGCGCCGGCUGGGAAACAUUCCGAGGGGACCGUCCCCUCGGUAAUGGCGAAUAGGACCCA [C41A G80A]	0.389
GGCCGGCAUGGUCCCAGCCUCCUCGCUGGCGCCGGCUGGGAAACAUUCCGAGGGGACCGUCCCCUCGGUAAUGGCGAAUUGGACCCA [C41A G80U]	0.187
GGCCGGCAUGGUCCCAGCCUCCUCGCUGGCGCCGGCUGGGAAACAUUCCGAGGGGACCGUGCCCUCGGUAAUGGCGAAUGGGACCCA [C41A C61G]	0.909
GGCCGGCAUGGUCCCAGCCUCCUCGCUGGCGCCGGCUGGGAAACAUUCCGAGGGGACCGUCCCCUUGGUAAUGGCGAAUGGGACCCA [C41A C66U]	0.9
GGCCGGCAUGGUCCCAGCCUCCUCGCUGGCGCCGGCUGGGGAACAUUCCGAGGGGACCGUCCCCUCGGUAUUGGCGAAUGGGACCCA [C41G A71U]	0.554
GGCCGGCAUGGUCCCAGCCUCCUCGCUGGCGCCGGCUGGGGAACAUUCCGAGGGGACCGUCCCCUCGGUACUGGCGAAUGGGACCCA [C41G A71C]	0.0723

Variant	self-cleavage
GGCCGGCAUGGUCCCAGCCUCCUCGCUGGCGCCGGCUGGGAAACAUUCCGAGGGGACCGUCCCCUCGGUAAUGGCGAAUGUGACCCA [C41A G81U]	0.211
GGCCGGCAUGGUCCCAGCCUCCUCGCUGGCGCCGGCUGGGAAACAUUCCGAGAGGACCGUCCCCUCGGUAAUGGCGAAUGGGACCCA [C41A G53A]	0.967
GGCCGGCAUGGUCCCAGCCUCCUCGCUGGCGCCGGCUGGGAAACACUCCGAGGGGACCGUCCCCUCGGUAAUGGCGAAUGGGACCCA [C41A U46C]	0.415
GGCCGGCAUGGUCCCAGCCUCCUCGCUGGCGCCGGCUGGGAAACAGUCCGAGGGGACCGUCCCCUCGGUAAUGGCGAAUGGGACCCA [C41A U46G]	0.554
GGCCGGCAUGGUCCCAGCCUCCUCGCUGGCGCCGGCUGGGAAACAAUCCGAGGGGACCGUCCCCUCGGUAAUGGCGAAUGGGACCCA [C41A U46A]	0.7
GGCCGGCAUGGUCCCAGCCUCCUCGCUGGCGCCGGCUGGGGAAGAUUCCGAGGGGACCGUCCCCUCGGUAAUGGCGAAUGGGACCCA [C41G C44G]	0.158
GGCCGGCAUGGUCCCAGCCUCCUCGCUGGCGCCGGCUGGGAAACAUUCCGAGGGGACCGUCCCCUCGGUAAUGGUGAAUGGGACCCA [C41A C75U]	0.145
GGCCGGCAUGGUCCCAGCCUCCUCGCUGGCGCCGGCUGGGAAACAUUCCGAGGGGACCGUCCCCUCGGUAAUGGGGAAUGGGACCCA [C41A C75G]	0.0773
GGCCGGCAUGGUCCCAGCCUCCUCGCUGGCGCCGGCUGGGAAACAUUCCGAGGGGACCGUCCCCUCGGUAAUGGAGAAUGGGACCCA [C41A C75A]	0.208
GGCCGGCAUGGUCCCAGCCUCCUCGCUGGCGCCGGCUGGGGAACAUUCCGAGGGGACCGUCCCCUCGGUAAUGGCGUAUGGGACCCA [C41G A77U]	0.185
GGCCGGCAUGGUCCCAGCCUCCUCGCUGGCGCCGGCUGGGGAACAUUCCGAGGGGACCGUCCCCUCGGUAAUGGCGCAUGGGACCCA [C41G A77C]	0.222
GGCCGGCAUGGUCCCAGCCUCCUCGCUGGCGCCGGCUGGGAAACAUUCCGAGGGGACCGUCCCCUCGGUAAUGACGAAUGGGACCCA [C41A G74A]	0.692
GGCCGGCAUGGUCCCAGCCUCCUCGCUGGCGCCGGCUGGGAAACAUUCCGAGGGGACCGUCCCCUCGGUAAUGGCGAACGGGACCCA [C41A U79C]	0.237
GGCCGGCAUGGUCCCAGCCUCCUCGCUGGCGCCGGCUGGGAAACAUUCCGAGGGGACCGUCCCCUCGGUAAUGGCGAAGGGGACCCA [C41A U79G]	0.858
GGCCGGCAUGGUCCCAGCCUCCUCGCUGGCGCCGGCUGGGAAACAUACCGAGGGGACCGUCCCCUCGGUAAUGGCGAAUGGGACCCA [C41A U47A]	0.689
GGCCGGCAUGGUCCCAGCCUCCUCGCUGGCGCCGGCUGGGAAACAUUCCGAGGGGACCGUCCCCUCGGUAAUGGCGAAUGGGACGCA [C41A C85G]	0.86
GGCCGGCAUGGUCCCAGCCUCCUCGCUGGCGCCGGCUGGGAAACAUUCCGAGGGGACCGUCCCCUCGGUAAUGGCGAAUGGGACACA [C41A C85A]	0.636
GGCCGGCAUGGUCCCAGCCUCCUCGCUGGCGCCGGCUGGGGUACAUUCCGAGGGGACCGUCCCCUCGGUAAUGGCGAAUGGGACCCA [C41G A42U]	0.886
GGCCGGCAUGGUCCCAGCCUCCUCGCUGGCGCCGGCUGGGGAACAUUCCGAGGGGGCCGUCCCCUCGGUAAUGGCGAAUGGGACCCA [C41G A56G]	0.851
GGCCGGCAUGGUCCCAGCCUCCUCGCUGGCGCCGGCUGGGGAACAUUCCGAGGGGUCCGUCCCCUCGGUAAUGGCGAAUGGGACCCA [C41G A56U]	0.746
